The text below walks through data of the supplement of paper PMC5998384.

The test system of series [1] is HeLa Kyoto. Kind of series: solubility change mitosis vs G1/S (difference of NP-40 vs SDS log2 ratios) (log2 ratio difference); higher = more soluble in mitosis.
Series [2] has as its system HeLa Kyoto. Kind of series: melting temperature (median over replicates), in situ; higher = more thermally stable.
Series [3] relates to HeLa Kyoto. Kind of series: solubility in G1/S (NP-40 vs SDS abundance) (log2 ratio); higher = more soluble. The settings on record: cell cycle stage: G1/S.
The subject of series [4] is HeLa Kyoto. Kind of series: thermal stability score vs G1/S (z-score of summed log2 fold changes over temperatures); higher = more thermally stable than in G1/S.
[5] abbreviates: cell cycle stage: early G1 (4.5 h after nocodazole release).
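Throughout, for melting temperature (median over replicates), in situ: HeLa Kyoto cells synchronized by double thymidine or nocodazole block, proteins quantified by TMT10plex mass spectrometry, three independent biological replicates.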
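Throughout, for solubility change mitosis vs G1/S (difference of NP-40 vs SDS log2 ratios): synchronized HeLa Kyoto cells (double thymidine block for G1/S, nocodazole release for mitosis), protein amounts in NP-40 versus SDS lysates quantified by mass spectrometry, three biological replicates.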
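Throughout, for solubility in G1/S (NP-40 vs SDS abundance): HeLa Kyoto cells arrested at G1/S by double thymidine block, proteins quantified by TMT10plex mass spectrometry in mild NP-40 versus SDS extracts, three biological replicates.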
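Throughout, for thermal stability score vs G1/S (z-score of summed log2 fold changes over temperatures): synchronized HeLa Kyoto cells, proteins quantified by TMT10plex mass spectrometry, three biological replicates, mitosis taken 0.5 h after nocodazole release, G1/S directly after double thymidine block.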

In the case of “MAASGKLSTCRLPPLPTIREIIKLLRLQAAKQLSQNFLLDLRLTDKIVRKAGNLTNAYVYEVGPGPGGITRSILNADVAELLVVEKDTRFIPGLQMLSDAAPGKLRIVHGDVLTFKVEKAFSESLKRPWEDDPPNVHIIGNLPFSVSTPLIIKWLENISCRDGPFVYGRTQMTLTFQKEVAERLAANTGSKQRSRLSVMAQYLCNVRHIFTIPGQAFVPKPEVDVGVVHFTPLIQPKIEQPFKLVEKVVQNVFQFRRKYCHRGLRMLFPEAQRLESTGRLLELADIDPTLRPRQLSISHFKSLCDVYRKMCDEDPQLFAYNFREELKRRKSKNEEKEEDDAENYRL [TFB1M]”, the “solubility change mitosis (log2)” value in series [1] worked out at 0.122. In addition, the values for the melting temperature in series [2] (cell cycle stage: G1/S) and in series [2] (cell cycle stage: mitosis) were 51.7 °C and 51.4 °C, respectively. In series [3], the “solubility in G1/S (log2)” value was -0.318. The thermal stability score was found to be 0.388 in series [4] (setting [5]) and 0.452 in series [4] (cell cycle stage: mitosis).

Regarding “MAASRPLSRFWEWGKNIVCVGRNYADHVREMRSAVLSEPVLFLKPSTAYAPEGSPILMPAYTRNLHHELELGVVMGKRCRAVPEAAAMDYVGGYALCLDMTARDVQDECKKKGLPWTLAKSFTASCPVSAFVPKEKIPDPHKLKLWLKVNGELRQEGETSSMIFSIPYIISYVSKIITLEEGDIILTGTPKGVGPVKENDEIEAGIHGLVSMTFKVEKPEY [FAHD1]”, the “solubility change mitosis (log2)” value in series [1] was -0.257. Further, the results for the melting temperature in series [2] (cell cycle stage: G1/S) and in series [2] (cell cycle stage: mitosis) were 53.5 °C and 60 °C, respectively. In addition, the “solubility in G1/S (log2)” value in series [3] came to 0.144. Also, the thermal stability score was -1.32 in series [4] (setting [5]) and -1.65 in series [4] (cell cycle stage: mitosis).

For the sequence “MAASVEQREGTIQVQGQALFFREALPGSGQARFSVLLLHGIRFSSETWQNLGTLHRLAQAGYRAVAIDLPGLGHSKEAAAPAPIGELAPGSFLAAVVDALELGPPVVISPSLSGMYSLPFLTAPGSQLPGFVPVAPICTDKINAANYASVKTPALIVYGDQDPMGQTSFEHLKQLPNHRVLIMKGAGHPCYLDKPEEWHTGLLDFLQGLQ [ABHD14B]”, the “solubility change mitosis (log2)” value in series [1] is -0.165. In addition, the melting temperature stood at 52.9 °C in series [2] (cell cycle stage: G1/S) and 52.7 °C in series [2] (cell cycle stage: mitosis). Further, the “solubility in G1/S (log2)” value in series [3] came out at 0.421. For the same sequence, the thermal stability score in series [4] (setting [5]) was -0.635; in series [4] (cell cycle stage: mitosis), -1.1.

For “MAATAREDGASGQERGQRGCEHYDRGCLLKAPCCDKLYTCRLCHDNNEDHQLDRFKVKEVQCINCEKIQHAQQTCEECSTLFGEYYCDICHLFDKDKKQYHCENCGICRIGPKEDFFHCLKCNLCLAMNLQGRHKCIENVSRQNCPICLEDIHTSRVVAHVLPCGHLLHRTCYEEMLKEGYRCPLCMHSALDMTRYWRQLDDEVAQTPMPSEYQNMTVDILCNDCNGRSTVQFHILGMKCKICESYNTAQAGGRRISLDQQ [RCHY1]”, in series [1], the “solubility change mitosis (log2)” value is -0.374. The melting temperature in series [2] (cell cycle stage: G1/S) was determined as 51.2 °C; in series [2] (cell cycle stage: mitosis) it was 52.3 °C. Further, the “solubility in G1/S (log2)” value in series [3] turned out to be 0.146. In addition, the thermal stability score was -0.0247 in series [4] (setting [5]) and 0.646 in series [4] (cell cycle stage: mitosis).

For the sequence “MAATASAGVPATVSEKQEFYQLLKNLINPSCMVRRQAEEIYENIPGLCKTTFLLDAVRNRRAGYEVRQMAAALLRRLLSSGFEEVYPNLPADVQRDVKIELILAVKLETHASMRKKLCDIFAVLARNLIDEDGTNHWPEGLKFLIDSIYSKNVVLWEVALHVFWHFPGIFGTQERHDLDIIKRLLDQCIQDQEHPAIRTLSARAAAAFVLANENNIALFKDFADLLPGILQAVNDSCYQDDDSVLESLVEIADTVPKYLGPYLEDTLQLSLKLCGDSRLSNLQRQLALEVIVTLSETATPMLKKHTNIIAQAVPHILAMMVDLQDDEDWVNADEMEEDDFDSNAVAAESALDRLACGLGGKVVLPMTKEHIMQMLQSPDWKYRHAGLMALSAIGEGCHQQMESILDETVNSVLLFLQDPHPRVRAAACTTLGQMATDFAPNFQKKFHETVIAALLRTMENQGNQRVQSHAASALIIFIEDCPKSLLVLYVDSMVKNLHSVLVIKLQELIRNGTKLALEQLVTTIASVADTIEEKFVPYYDIFMPSLKHIVELAVQKELKLLRGKTIECISHIGLAVGKEKFMQDASNVMQLLLKTQSDLNNMEDDDPQTSYMVSAWARMCKILGKDFQQYLPLVIEPLIKTASAKPDVALLDTQDVENMSDDDGWQFVNLGDQQSFGIKTSGLEAKATACQMLVYYAKELREGFVEYTEQVVKLMVPLLKFYFHDNVRVAAAESMPFLLECARIRGPEYLAQMWQFICDPLIKAIGTEPDTDVLSEIMNSFAKSIEVMGDGCLNDEHLEELGGILKAKLEGHFKNQELRQVKRQEENYDQQVEMSLQDEDECDVYILTKVSDILHSLFSTYKEKILPWFEQLLPLIVNLICSSRPWPDRQWGLCIFDDIIEHCSPTSFKYVEYFRWPMLLNMRDNNPEVRQAAAYGLGVMAQFGGDDYRSLCSEAVPLLVKVIKCANSKTKKNVIATENCISAIGKILKFKPNCVNVDEVLPHWLSWLPLHEDKEEAIQTLSFLCDLIESNHPVVIGPNNSNLPKIISIIAEGKINETINYEDPCAKRLANVVRQVQTSEDLWLECVSQLDDEQQEALQELLNFA [RANBP6]”, the “solubility change mitosis (log2)” value in series [1] is -0.132. For the same sequence, the melting temperature in series [2] (cell cycle stage: G1/S) came out at 49.9 °C; in series [2] (cell cycle stage: mitosis), 51.5 °C. In addition, the “solubility in G1/S (log2)” value in series [3] was -0.0197. The values for the thermal stability score in series [4] (setting [5]) and in series [4] (cell cycle stage: mitosis) were 0.799 and 0.825, respectively.

“MAATLDLKSKEEKDAELDKRIEALRRKNEALIRRYQEIEEDRKKAELEGVAVTAPRKGRSVEKENVAVESEKNLGPSRRSPGTPRPPGASKGGRTPPQQGGRAGMGRASRSWEGSPGEQPRGGGAGGRGRRGRGRGSPHLSGAGDTSISDRKSKEWEERRRQNIEKMNEEMEKIAEYERNQREGVLEPNPVRNFLDDPRRRSGPLEESERDRREESRRHGRNWGGPDFERVRCGLEHERQGRRAGLGSAGDMTLSMTGRERSEYLRWKQEREKIDQERLQRHRKPTGQWRREWDAEKTDGMFKDGPVPAHEPSHRYDDQAWARPPKPPTFGEFLSQHKAEASSRRRRKSSRPQAKAAPRAYSDHDDRWETKEGAASPAPETPQPTSPETSPKETPMQPPEIPAPAHRPPEDEGEENEGEEDEEWEDISEDEEEEEIEVEEGDEEEPAQDHQAPEAAPTGIPCSEQAHGVPFSPEEPLLEPQAPGTPSSPFSPPSGHQPVSDWGEEVELNSPRTTHLAGALSPGEAWPFESV [CCDC9]”: the “solubility change mitosis (log2)” value in series [1] amounted to 0.231. The melting temperature in series [2] (cell cycle stage: G1/S) and in series [2] (cell cycle stage: mitosis) was 56.3 °C each time. Further, the “solubility in G1/S (log2)” value in series [3] was -0.239. Moreover, the thermal stability score in series [4] (setting [5]) amounted to 3.28; in series [4] (cell cycle stage: mitosis), 2.57.

On to “MAATLLAARGAGPAPAWGPEAFTPDWESREVSTGTTIMAVQFDGGVVLGADSRTTTGSYIANRVTDKLTPIHDRIFCCRSGSAADTQAVADAVTYQLGFHSIELNEPPLVHTAASLFKEMCYRYREDLMAGIIIAGWDPQEGGQVYSVPMGGMMVRQSFAIGGSGSSYIYGYVDATYREGMTKEECLQFTANALALAMERDGSSGGVIRLAAIAESGVERQVLLGDQIPKFAVATLPPA [PSMB6]”, for which, in series [1], the “solubility change mitosis (log2)” value was -0.103. The melting temperature worked out at 59 °C in series [2] (cell cycle stage: G1/S) and 59.6 °C in series [2] (cell cycle stage: mitosis). Also, in series [3], the “solubility in G1/S (log2)” value was determined as 0.119. In addition, the values for the thermal stability score in series [4] (setting [5]) and in series [4] (cell cycle stage: mitosis) were -1.97 and -2.64, respectively.

Regarding “MAAVATCGSVAASTGSAVATASKSNVTSFQRRGPRASVTNDSGPRLVSIAGTRPSVRNGQLLVSTGLPALDQLLGGGLAVGTVLLIEEDKYNIYSPLLFKYFLAEGIVNGHTLLVASAKEDPANILQELPAPLLDDKCKKEFDEDVYNHKTPESNIKMKIAWRYQLLPKMEIGPVSSSRFGHYYDASKRMPQELIEASNWHGFFLPEKISSTLKVEPCSLTPGYTKLLQFIQNIIYEEGFDGSNPQKKQRNILRIGIQNLGSPLWGDDICCAENGGNSHSLTKFLYVLRGLLRTSLSACIITMPTHLIQNKAIIARVTTLSDVVVGLESFIGSERETNPLYKDYHGLIHIRQIPRLNNLICDESDVKDLAFKLKRKLFTIERLHLPPDLSDTVSRSSKMDLAESAKRLGPGCGMMAGGKKHLDF [ELP4]”, the “solubility change mitosis (log2)” value in series [1] is -0.017. In addition, the results for the melting temperature in series [2] (cell cycle stage: G1/S) and in series [2] (cell cycle stage: mitosis) were 53.8 °C and 55.4 °C, respectively. Further, in series [3], the “solubility in G1/S (log2)” value is 0.226. Moreover, the thermal stability score in series [4] (setting [5]) was 0.169; in series [4] (cell cycle stage: mitosis), -0.665.

Take “MAAVKDSCGKGEMATGNGRRLHLGIPEAVFVEDVDSFMKQPGNETADTVLKKLDEQYQKYKFMELNLAQKKRRLKGQIPEIKQTLEILKYMQKKKESTNSMETRFLLADNLYCKASVPPTDKVCLWLGANVMLEYDIDEAQALLEKNLSTATKNLDSLEEDLDFLRDQFTTTEVNMARVYNWDVKRRNKDDSTKNKA [VBP1]”: the “solubility change mitosis (log2)” value in series [1] is 0.513. In addition, the melting temperature in series [2] (cell cycle stage: G1/S) is 53.1 °C; in series [2] (cell cycle stage: mitosis) it was 53.4 °C. The “solubility in G1/S (log2)” value in series [3] turned out to be 0.453. Further, the thermal stability score in series [4] (setting [5]) was -3.96; in series [4] (cell cycle stage: mitosis), -5.3.

Regarding “MAAVWQQVLAVDARYNAYRTPTFPQFRTQYIRRRSQLLRENAKAGHPPALRRQYLRLRGQLLGQRYGPLSEPGSARAYSNSIVRSSRTTLDRMEDFEDDPRALGARGHRRSVSRGSYQLQAQMNRAVYEDRPPGSVVPTSAAEASRAMAGDTSLSENYAFAGMYHVFDQHVDEAVPRVRFANDDRHRLACCSLDGSISLCQLVPAPPTVLRVLRGHTRGVSDFAWSLSNDILVSTSLDATMRIWASEDGRCIREIPDPDSAELLCCTFQPVNNNLTVVGNAKHNVHVMNISTGKKVKGGSSKLTGRVLALSFDAPGRLLWAGDDRGSVFSFLFDMATGKLTKAKRLVVHEGSPVTSISARSWVSREARDPSLLINACLNKLLLYRVVDNEGTLQLKRSFPIEQSSHPVRSIFCPLMSFRQGACVVTGSEDMCVHFFDVERAAKAAVNKLQGHSAPVLDVSFNCDESLLASSDASGMVIVWRREQK [WDR13]”, the “solubility change mitosis (log2)” value in series [1] is -0.174. Moreover, the melting temperature in series [2] (cell cycle stage: G1/S) turned out to be 53.2 °C; in series [2] (cell cycle stage: mitosis), 53 °C. Also, the “solubility in G1/S (log2)” value in series [3] is 0.0237. Besides, the results for the thermal stability score in series [4] (setting [5]) and in series [4] (cell cycle stage: mitosis) were 0.118 and 0.204, respectively.
